Here are results for 10 molecules from patent US11279751B2.

Sequences and labels used below:
B1: WS1 binder of SEQ ID NO: 48 (designed binder)
chain: MASTSGVSDVPRDLEVVAATPTSLLISWDAPAVPVSKYVIYYWPGALISSMQAFKVPGSKSTATISGLKPGVLYSIVVDALTGDGQGSYVWDPITITYRTEGSGS
B2: WS1 binder of SEQ ID NO: 49 (designed binder)
chain: MASTSGVSDVPRDLEVVAATPTSLLISWDAPAVTVHSYYITYQELQHHSVPQGFQVPGSKSTATISGLKPGVAYQIAVYAFTGPGLPPSDAPPIVIYYRTEGSGS
B3: Adnectin-3 (designed binder)
chain: MASTSGVSDVPRDLEVVAATPTSLLISWDAPAVPVSKYVIYYWPGALISSMQAFKVPGSKSTATISGLKPGVLYSIVVDALTGDGQGSYVWDPITITYRTEGSGSHHHHHH
B4: Adnectin-7 (designed binder)
chain: MGVSDVPRDLEVVTATPTSLLISWDGPKYYVKYYRITYGETGGNSPVQEFTVPRTDHTATISGLKPGVDYTITVYAVKGQYGPYYGSRPISINYRTEIDKPSQHHHHHH
B5: Adnectin-8 (designed binder)
chain: MGVSDVPRDLEVVAATPTSLLISWSQPGRYVKYYRITYGETGGNSPVQEFTVPNDTYTATISGLKPGVDYTITVYAVYGKYGPYYGYDPISINYRTEIDKPSQHHHHHH
B6: Adnectin-1 (designed binder)
chain: MASTSGSTHYYKGTADLEVVAATPTSLLISWPPPYYVEGVTVFRITYGETGGNSPVQEFTVPYWTETATISGLKPGVDYTITVYAEMYPGSPWAGQVMDIQPISINYRTEGSGSHHHHHH
B7: Adnectin-2 (designed binder)
chain: MASTSGVSDVPRDLEVVAATPTSLLISWDAPAVTVNNYRITYQPLLQGSSIQHFDVPGSKSTATISGLKPGVGYQITVYASTYTHSKAYYSLPISIYYRTEGSGSHHHHHH
B8: Adnectin-5 (designed binder)
chain: MGVSDVPRDLEVVAATPTSLLISWKYPYETISYYRITYGETGGNSPVQEFTVPYYRSTATISGLKPGVDYTITVYAVEASAPYSDGGSPISINYRTEIDKPSQHHHHHH
B9: Adnectin-6 (designed binder)
chain: MGVSDVPRDLEVVAATPTSLLISWSRPKGSIKYYRITYGETGGNSPVQEFTVPNSQYTATISGLKPGVDYTITVYAVYGYPYQEPHYYPISINYRTEIDKPSQHHHHHH
B10: Adnectin-4 (designed binder)
chain: MASTSGVSDVPRDLEVVAATPTSLLISWDAPAVTVHSYYITYQELQHHSVPQGFQVPGSKSTATISGLKPGVAYQIAVYAFTGPGLPPSDAPPIVIYYRTEGSGSHHHHHH

As usually defined, the Kd is the free concentration of one partner at which half of the binding sites on the other are occupied at equilibrium, for simple one-to-one binding. A low value points to higher affinity. Broadly, the koff is a measure of how fast the partners let go of each other. As usually defined, the kon is the rate constant with which the complex forms. Low readings indicate slow association, high ones fast association.

The first assay has as its target T1, human PXR-GST (Invitrogen) (human) (UniProt O75469).
T1 sequence: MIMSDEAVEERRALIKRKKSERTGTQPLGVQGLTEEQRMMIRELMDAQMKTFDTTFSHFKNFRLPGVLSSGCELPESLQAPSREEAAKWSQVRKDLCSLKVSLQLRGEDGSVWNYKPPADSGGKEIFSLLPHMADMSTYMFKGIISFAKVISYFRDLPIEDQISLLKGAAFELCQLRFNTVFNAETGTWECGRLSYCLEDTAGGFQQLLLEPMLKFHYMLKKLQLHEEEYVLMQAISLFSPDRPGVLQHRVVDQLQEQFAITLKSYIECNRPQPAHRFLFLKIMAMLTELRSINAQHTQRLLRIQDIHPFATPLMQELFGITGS
As to the kind of experiment: Biacore, binder at 0.5-2 µM over GST-PXR captured by anti-GST antibody.
Turning to B1, the RU bound was 146 RU.

B2 showed an RU bound of 81 RU.

The next assay concerns the target T1, human PXR-GST (Invitrogen) (human). As to the kind of experiment: SPR (Biacore T100), Adnectin series over human PXR-GST captured by anti-GST antibody. A general note: SPR reads the build-up and loss of mass on a sensor chip optically.
B3 gave a Kd of 2.5 nM, a koff of 0.000378 s⁻¹ and a kon of 16200 M⁻¹ s⁻¹.

B4: the Kd stood at 0.31 nM, the koff came out at 8.82e-05 s⁻¹ and the on-rate constant (kon) was found to be 288000 M⁻¹ s⁻¹.

The molecule B5 yielded a Kd of 4.4 nM, an off-rate (koff) of 0.000182 s⁻¹ and an association rate constant (kon) of 41700 M⁻¹ s⁻¹.

For B6, the equilibrium dissociation constant (Kd) was 11.4 nM, the koff stood at 0.00119 s⁻¹ and the kon amounted to 104000 M⁻¹ s⁻¹.

B7 registered a Kd of 97.8 nM, a koff of 0.00458 s⁻¹ and an association rate constant (kon) of 162000 M⁻¹ s⁻¹.

As to B8, the dissociation constant (Kd) stood at 5.4 nM, the koff worked out at 0.0027 s⁻¹ and the kon worked out at 509000 M⁻¹ s⁻¹.

In turn, B9 gave a Kd of 1.9 nM, an off-rate constant (koff) of 0.00126 s⁻¹ and an association rate constant (kon) of 680000 M⁻¹ s⁻¹.

In turn, B10 came in with a Kd of 7.8 nM, a koff of 0.000168 s⁻¹ and an on-rate constant (kon) of 21500 M⁻¹ s⁻¹.
